In FireProtDB (doi:10.1002/prot.1088):
“And” between values parts separate entries of the source, which are not always exact repeats. Equal entries are not always repeated.

B1: Lysozyme C, P61626 (parent)
chain: MKALIVLGLVLLSVTVQGKVFERCELARTLKRLGMDGYRGISLANWMCLAKWESGYNTRATNYNAGDRSTDYGIFQINSRYWCNDGKTPGAVNACHLSCSALLQDNIADAVACAKRVVRDPQGIRAWVAWRNRCQNRDVRQYVQGCGV

Variants of: B1
Settings: Homo sapiens; pH 2.5; Thermal; DSC; Gly-HCl 0.05 M; reversible: yes; structure 1LZ1; whole UniProt chain shown

Row | Variant | Tm [°C] | unfolding enthalpy (calorimetric) [kcal/mol] | unfolding enthalpy (van 't Hoff) [kcal/mol]
1 | H96A | 61.1 | 97.5 | 107
2 | Q76A | 64.5 | 97 | 103
3 | Y56G | 53 | 85.8 | 87
4 | R68A | 62.8 | 101 | 108
5 | R39G | 64.6 | 102 | 107

Same assay, conditions: Homo sapiens; pH 2.7; 64.9 °C; Thermal; DSC; Gly-HCl 0.05 M; reversible: yes; structure 1LZ1; whole UniProt chain shown

Row | Variant | ddG of mutation (higher = less stable) [kcal/mol]
6 | H96A | 0.14
7 | Q76A | -0.91
8 | Y56A | 2.49
9 | Y56G | 2.32
10 | N136A | -0.19
11 | N136G | -0.05
12 | R68A | -0.43
13 | R39G | -1.15

Same assay, conditions: Homo sapiens; pH 2.7; Thermal; DSC; Gly-HCl 0.05 M; reversible: yes; structure 1LZ1; whole UniProt chain shown

Row | Variant | Tm | change of melting temperature, mutant - wild type (higher = more stable) [°C] | heat capacity change of unfolding [kcal/mol/K] | unfolding enthalpy (calorimetric) | unfolding enthalpy (van 't Hoff) [kcal/mol]
14 | H96A | 64.3 °C and 64.4 °C | -0.5 | 1.51 | 103 kcal/mol | 112
15 | Q76A | 67.8 °C and 68 °C | 3.1 | 1.65 | 104 kcal/mol and 98.2 kcal/mol | 113
16 | Y56A | 56 °C | -8.9 | 0.98 | 96.8 kcal/mol | –
17 | Y56G | 56.7 °C | -8.2 | 0.96 | 96.8 kcal/mol | –
18 | N136A | 65.5 °C | 0.6 | 1.24 | 104 kcal/mol | –
19 | N136G | 65.1 °C | 0.2 | 1.65 | 101 kcal/mol | –
20 | R68A | 66.3 °C | 1.4 | 1.51 | 104 kcal/mol | –
21 | R39G | 68.6 °C | 3.7 | 1.74 | 103 kcal/mol | –
22 | R39A | 69.4 °C | 4.5 | 1.82 | 96.6 kcal/mol | –

Same assay, conditions: Homo sapiens; pH 3; Thermal; DSC; Gly-HCl 0.05 M; reversible: yes; structure 1LZ1; whole UniProt chain shown

Row | Variant | Tm [°C] | unfolding enthalpy (calorimetric) [kcal/mol] | unfolding enthalpy (van 't Hoff) [kcal/mol]
23 | H96A | 69.5 | 110 | 117
24 | Y56A | 61.7 | 94.4 | 96.3
25 | R68A | 70.9 | 114 | 121

Same assay, conditions: Homo sapiens; pH 3.1; Thermal; DSC; Gly-HCl 0.05 M; reversible: yes; structure 1LZ1; whole UniProt chain shown

Row | Variant | Tm [°C] | unfolding enthalpy (calorimetric) [kcal/mol] | unfolding enthalpy (van 't Hoff) [kcal/mol]
26 | Q76A | 75.1 | 115 | 123
27 | N136G | 71.6 | 113 | 119

Same assay, conditions: Homo sapiens; pH 2.72; Thermal; DSC; Gly-HCl 0.05 M; reversible: yes; structure 1LZ1; whole UniProt chain shown

Row | Variant | Tm [°C] | unfolding enthalpy (calorimetric) [kcal/mol] | unfolding enthalpy (van 't Hoff) [kcal/mol]
28 | Y56A | 56.3 | 88 | 89.2

Same assay, conditions: Homo sapiens; pH 3.18; Thermal; DSC; Gly-HCl 0.05 M; reversible: yes; structure 1LZ1; whole UniProt chain shown

Row | Variant | Tm [°C] | unfolding enthalpy (calorimetric) [kcal/mol] | unfolding enthalpy (van 't Hoff) [kcal/mol]
29 | Y56A | 65 | 96.3 | 97.5

Same assay, conditions: Homo sapiens; pH 2.78; Thermal; DSC; Gly-HCl 0.05 M; reversible: yes; structure 1LZ1; whole UniProt chain shown

Row | Variant | Tm [°C] | unfolding enthalpy (calorimetric) [kcal/mol] | unfolding enthalpy (van 't Hoff) [kcal/mol]
30 | Y56G | 58.5 | 90.1 | 92.3

Same assay, conditions: Homo sapiens; pH 3.24; Thermal; DSC; Gly-HCl 0.05 M; reversible: yes; structure 1LZ1; whole UniProt chain shown

Row | Variant | Tm [°C] | unfolding enthalpy (calorimetric) [kcal/mol] | unfolding enthalpy (van 't Hoff) [kcal/mol]
31 | Y56G | 65.6 | 97.8 | 99.7

Same assay, conditions: Homo sapiens; pH 2.51; Thermal; DSC; Gly-HCl 0.05 M; reversible: yes; structure 1LZ1; whole UniProt chain shown

Row | Variant | Tm [°C] | unfolding enthalpy (calorimetric) [kcal/mol] | unfolding enthalpy (van 't Hoff) [kcal/mol]
32 | N136A | 62.1 | 99.9 | 106
33 | R39A | 66.1 | 98.7 | 107

Same assay, conditions: Homo sapiens; pH 2.74; Thermal; DSC; Gly-HCl 0.05 M; reversible: yes; structure 1LZ1; whole UniProt chain shown

Row | Variant | Tm [°C] | unfolding enthalpy (calorimetric) [kcal/mol] | unfolding enthalpy (van 't Hoff) [kcal/mol]
34 | N136A | 66.2 | 107 | 112
35 | N136G | 65.7 | 103 | 110

Same assay, conditions: Homo sapiens; pH 2.87; Thermal; DSC; Gly-HCl 0.05 M; reversible: yes; structure 1LZ1; whole UniProt chain shown

Row | Variant | Tm [°C] | unfolding enthalpy (calorimetric) [kcal/mol] | unfolding enthalpy (van 't Hoff) [kcal/mol]
36 | N136A | 68.6 | 109 | 117

Same assay, conditions: Homo sapiens; pH 3.02; Thermal; DSC; Gly-HCl 0.05 M; reversible: yes; structure 1LZ1; whole UniProt chain shown

Row | Variant | Tm [°C] | unfolding enthalpy (calorimetric) [kcal/mol] | unfolding enthalpy (van 't Hoff) [kcal/mol]
37 | N136A | 70.9 | 111 | 118

Same assay, conditions: Homo sapiens; pH 2.95; Thermal; DSC; Gly-HCl 0.05 M; reversible: yes; structure 1LZ1; whole UniProt chain shown

Row | Variant | Tm [°C] | unfolding enthalpy (calorimetric) [kcal/mol] | unfolding enthalpy (van 't Hoff) [kcal/mol]
38 | N136G | 69.3 | 107 | 115

Same assay, conditions: Homo sapiens; pH 2.71; Thermal; DSC; Gly-HCl 0.05 M; reversible: yes; structure 1LZ1; whole UniProt chain shown

Row | Variant | Tm [°C] | unfolding enthalpy (calorimetric) [kcal/mol] | unfolding enthalpy (van 't Hoff) [kcal/mol]
39 | R68A | 66.6 | 106 | 113
40 | R39A | 69.8 | 106 | 113

Same assay, conditions: Homo sapiens; pH 2.84; Thermal; DSC; Gly-HCl 0.05 M; reversible: yes; structure 1LZ1; whole UniProt chain shown

Row | Variant | Tm [°C] | unfolding enthalpy (calorimetric) [kcal/mol] | unfolding enthalpy (van 't Hoff) [kcal/mol]
41 | R68A | 69.1 | 109 | 117

Same assay, conditions: Homo sapiens; pH 2.69; Thermal; DSC; Gly-HCl 0.05 M; reversible: yes; structure 1LZ1; whole UniProt chain shown

Row | Variant | Tm [°C] | unfolding enthalpy (calorimetric) [kcal/mol] | unfolding enthalpy (van 't Hoff) [kcal/mol]
42 | R39G | 68.2 | 109 | 113

Same assay, conditions: Homo sapiens; pH 2.81; Thermal; DSC; Gly-HCl 0.05 M; reversible: yes; structure 1LZ1; whole UniProt chain shown

Row | Variant | Tm [°C] | unfolding enthalpy (calorimetric) [kcal/mol] | unfolding enthalpy (van 't Hoff) [kcal/mol]
43 | R39G | 70.9 | 113 | 116

Same assay, conditions: Homo sapiens; pH 3.23; Thermal; DSC; Gly-HCl 0.05 M; reversible: yes; structure 1LZ1; whole UniProt chain shown

Row | Variant | Tm [°C] | unfolding enthalpy (calorimetric) [kcal/mol] | unfolding enthalpy (van 't Hoff) [kcal/mol]
44 | R39A | 77.6 | 120 | 129
